In series [1] the target is T1, ABF1 (Arabidopsis thaliana) (UniProt Q9M7Q5).
T1 sequence: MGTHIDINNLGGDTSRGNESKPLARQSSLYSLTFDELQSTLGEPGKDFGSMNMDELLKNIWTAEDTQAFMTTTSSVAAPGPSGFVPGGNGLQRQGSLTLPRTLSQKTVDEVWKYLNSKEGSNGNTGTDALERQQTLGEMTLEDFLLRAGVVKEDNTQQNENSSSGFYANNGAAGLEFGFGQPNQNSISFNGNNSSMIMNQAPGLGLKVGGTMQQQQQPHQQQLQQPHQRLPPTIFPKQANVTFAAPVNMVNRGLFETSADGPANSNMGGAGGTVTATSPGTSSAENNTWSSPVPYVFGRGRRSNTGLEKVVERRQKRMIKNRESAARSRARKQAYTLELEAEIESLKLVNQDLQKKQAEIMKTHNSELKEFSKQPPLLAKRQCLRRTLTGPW
Briefly: one_hybrid.

Series [2] concerns ABF2 (Arabidopsis thaliana). Briefly: one_hybrid.

Regarding Em1a trimer reporter, the activity (fold over control vector) in series [1] amounted to 6. Also, in series [2], the activity (fold over background) came out at 2.

These data come from patent publication US6218527.
